Results on 3 molecules are retold here after article PMC6289755 (Journal of molecular biology, 2018).

The data set “SEC-MALS” deals with the molecule itself. Kind of data set: SEC-MALS. For orientation: In gel filtration, larger molecules generally elute earlier.
The target in data set [1] is T1, TRIM25 WT (human, UniProt Q14258 1-630). The data set is described as follows: SEC-MALS.
For the next data set, the target named is TRIM25 7KA mutant (human, UniProt Q14258 1-630, K381A;K382A;K385A;K388A;K389A;K391A;K392A). The data set is described as follows: SEC-MALS.
In a further data set the target is T2, TRIM25 7K peptide (human, UniProt Q14258 379-394).
T2 chain: PVKKVSKEEKKSKKPP
Kind of data set: EMSA. (In EMSA bound probe runs differently from free probe, usually more slowly.)

The target of a further data set is TRIM25 CCD+7K (human, UniProt Q14258 189-409). The data set is described as follows: EMSA.
Chain of TRIM25 CCD+7K (Q14258 189-409): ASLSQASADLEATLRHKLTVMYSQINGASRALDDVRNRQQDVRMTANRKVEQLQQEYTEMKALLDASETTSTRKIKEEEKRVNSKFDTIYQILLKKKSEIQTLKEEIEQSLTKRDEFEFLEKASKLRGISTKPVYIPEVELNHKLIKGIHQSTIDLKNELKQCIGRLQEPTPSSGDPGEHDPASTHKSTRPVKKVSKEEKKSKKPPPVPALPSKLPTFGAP
In another data set the target is TRIM25 CCD (human, UniProt Q14258 189-379). The data set is described as follows: EMSA.
A further data set addresses TRIM25 CCD-SPRY (human, UniProt Q14258 189-630). Kind of data set: EMSA.
The target of data set [2] is T1, TRIM25 WT. The data set is described as follows: EMSA.
Another data set concerns the target TRIM25 SPRY (human, UniProt Q14258 410-630). Kind of data set: EMSA.
In the next data set the target is TRIM25 ΔSPRY (RBCC) (human, UniProt Q14258 1-379). The data set is described as follows: EMSA.

Chain of TRIM25 CCD-SPRY (Q14258 189-630): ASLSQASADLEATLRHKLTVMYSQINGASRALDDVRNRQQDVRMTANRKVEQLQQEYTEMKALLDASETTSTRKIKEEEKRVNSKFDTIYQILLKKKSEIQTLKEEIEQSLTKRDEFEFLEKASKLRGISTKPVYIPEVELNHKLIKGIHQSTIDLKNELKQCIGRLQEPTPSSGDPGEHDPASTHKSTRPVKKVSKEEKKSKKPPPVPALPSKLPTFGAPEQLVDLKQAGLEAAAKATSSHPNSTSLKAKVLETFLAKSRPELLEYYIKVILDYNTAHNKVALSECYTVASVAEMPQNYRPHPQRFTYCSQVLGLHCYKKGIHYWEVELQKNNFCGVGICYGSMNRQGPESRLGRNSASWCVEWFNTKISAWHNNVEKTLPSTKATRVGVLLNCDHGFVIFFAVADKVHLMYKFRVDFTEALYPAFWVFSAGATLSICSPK
T1 sequence (Q14258 whole entry): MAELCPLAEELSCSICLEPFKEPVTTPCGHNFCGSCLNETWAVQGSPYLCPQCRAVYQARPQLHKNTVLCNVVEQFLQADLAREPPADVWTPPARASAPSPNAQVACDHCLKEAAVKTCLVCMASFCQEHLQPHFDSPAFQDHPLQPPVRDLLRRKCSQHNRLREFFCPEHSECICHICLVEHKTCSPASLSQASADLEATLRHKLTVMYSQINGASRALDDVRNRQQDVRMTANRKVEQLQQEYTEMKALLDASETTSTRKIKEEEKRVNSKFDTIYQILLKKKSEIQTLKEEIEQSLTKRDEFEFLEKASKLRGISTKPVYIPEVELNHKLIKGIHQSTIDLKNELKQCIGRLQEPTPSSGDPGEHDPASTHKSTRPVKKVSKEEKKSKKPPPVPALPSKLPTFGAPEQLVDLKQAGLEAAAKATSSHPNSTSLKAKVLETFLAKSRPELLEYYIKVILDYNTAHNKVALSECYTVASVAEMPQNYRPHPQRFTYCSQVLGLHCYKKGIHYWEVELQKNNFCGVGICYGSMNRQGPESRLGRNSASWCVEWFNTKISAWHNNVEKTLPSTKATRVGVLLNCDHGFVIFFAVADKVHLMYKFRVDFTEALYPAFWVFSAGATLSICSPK

B1: Full-length TRIM25 7KA mutant, purified (enzyme, human, UniProt Q14258 1-630, looked up)
chain: MAELCPLAEELSCSICLEPFKEPVTTPCGHNFCGSCLNETWAVQGSPYLCPQCRAVYQARPQLHKNTVLCNVVEQFLQADLAREPPADVWTPPARASAPSPNAQVACDHCLKEAAVKTCLVCMASFCQEHLQPHFDSPAFQDHPLQPPVRDLLRRKCSQHNRLREFFCPEHSECICHICLVEHKTCSPASLSQASADLEATLRHKLTVMYSQINGASRALDDVRNRQQDVRMTANRKVEQLQQEYTEMKALLDASETTSTRKIKEEEKRVNSKFDTIYQILLKKKSEIQTLKEEIEQSLTKRDEFEFLEKASKLRGISTKPVYIPEVELNHKLIKGIHQSTIDLKNELKQCIGRLQEPTPSSGDPGEHDPASTHKSTRPVAAVSAEEAASAAPPPVPALPSKLPTFGAPEQLVDLKQAGLEAAAKATSSHPNSTSLKAKVLETFLAKSRPELLEYYIKVILDYNTAHNKVALSECYTVASVAEMPQNYRPHPQRFTYCSQVLGLHCYKKGIHYWEVELQKNNFCGVGICYGSMNRQGPESRLGRNSASWCVEWFNTKISAWHNNVEKTLPSTKATRVGVLLNCDHGFVIFFAVADKVHLMYKFRVDFTEALYPAFWVFSAGATLSICSPK
On to B1, for which the binding result in “SEC-MALS” is “binds”.

B2: 56-bp dsRNA (dsRNA)
RNA 1: AUGGCUAGCUGGAGCCACCCGCAGUUCGUACAAGGAUGACGAUGACAAGGGUACAA
RNA 2: UUGUACCCUUGUCAUCGUCAUCCUUGUACGAACUGCGGGUGGCUCCAGCUAGCCAU
On to B2, for which the values for the binding result in the data set with TRIM25 WT [1] and with TRIM25 7KA mutant were “binds” and “no binding”, respectively.

B3: 28-bp dsRNA, fluorescent (dsRNA)
RNA 1: AUGGCUAGCUGGAGCCACCCGCAGUUCG
RNA 2: CGAACUGCGGGUGGCUCCAGCUAGCCAU
The Kd is the equilibrium constant for the complex coming apart. Read a high Kd as a looser complex. On to B3, for which the binding result with TRIM25 7K peptide, with TRIM25 CCD+7K, with TRIM25 CCD and in the data set with TRIM25 ΔSPRY (RBCC) was “no binding” each time. Further, the equilibrium dissociation constant (Kd) was found to be 110 ± 20 nM with TRIM25 CCD-SPRY, 260 ± 30 nM with TRIM25 WT [2] and 3470 ± 1170 nM with TRIM25 SPRY.
